Laboratory results as given in the supplement of paper PMC10567573.

B1: EMD (parent)
chain: YQSKGYNDDYYEESYFTTRTYGEP

Variants of: B1
Assay: protein stability index of a GFP-peptide fusion (GPS, HEK-293T) (PSI 1-6); higher = more stable
Details: c terminus: a fixed tail appended
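Note: lentivirally expressed fusions sorted by FACS into six bins by GFP to DsRed ratio, PSI derived from sequencing read proportions per bin multiplied by bin number.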

Variant	protein stability index
Y11S	2.8
Y11T	2.94
Y11D	3.29
Y11A	2.97
Y11F	1.68
Y11N	2.98
Y11I	2.19
Y11L	2.38
Y11W	1.87
Y11E	3.16
Y11P	2.19
Y11G	2.84
Y11V	2.34
N7W	3.23
N7L	1.71
N7D	2.62
N7R	1.75
N7K	1.94
N7G	2.13
N7C	2.05
N7M	1.67
N7I	1.76
N7Q	2.14
N7T	2.14

Variant	protein stability index
N7E	2.87
N7S	2.47
N7Y	1.88
N7A	2.25
N7V	2.13
N7F	3.55
G22I	2.13
G22Q	2.25
G22L	2.01
G22W	1.93
G22K	2.85
G22S	2.07
G22V	2.02
G22D	2.23
G22C	1.92
G22M	1.96
G22H	2.13
G22T	2.49
G22F	1.77
Y21G	2.98
Y21L	2.32
Y21M	2.97
Y21D	3.06
Y21R	2.46

Variant	protein stability index
Y21A	2.76
Y21W	1.96
Y21S	2.77
Y21I	2.39
Y21H	2.86
Y21K	2.52
Y21F	2.02
Y21T	2.27
Y21N	2.68
Y21Q	2.53
R19S	2.53
R19I	2.09
R19H	2.5
R19Y	2.52
R19Q	2.88
R19V	2.26
R19T	2.81
R19G	3.07
R19D	3.08
R19L	2.21
R19C	2.08
R19W	2.03
R19E	3.12
Q2D	3.5

Variant	protein stability index
Q2T	1.99
Q2F	1.93
Q2A	2.15
Q2E	3.62
Q2M	2.36
Q2P	2.29
Q2N	3.11
Q2R	2.54
Q2S	2.65
Q2W	1.59
Q2H	2.03
Q2I	1.93
G5A	1.93
G5E	3.1
G5P	2.1
G5N	2.33
G5T	2.52
G5C	1.95
G5F	2.33
G5K	2.22
G5D	3.08
G5W	2.92
G5Y	1.89
G5V	2.06

Variant	protein stability index
G5S	2.9
G5M	1.74
G5R	1.97
G5H	1.89
G5I	2.18
T20P	2.17
T20K	2.05
T20E	2.52
T20V	2.1
T20G	2.6
T20N	2.53
T20C	2.26
T20Y	1.44
T20M	2.29
T20Q	1.86
T20S	2.33
T20I	1.73
T20D	2.52
T20L	2.4
T20R	2.1
T20H	2.1
K4T	2.38
K4W	2.39
K4R	2.44

Variant	protein stability index
K4N	2.36
K4P	2.5
K4V	2.54
K4M	2.32
K4I	1.98
K4C	2.63
K4A	2.36
K4F	1.69
K4E	3.46
K4H	1.97
K4Y	2.06
S3K	2.75
S3V	1.95
S3H	2.42
S3C	1.95
S3I	2.14
S3Y	2.47
S3G	2.18
S3D	3.31
S3L	2.17
S3R	2.75
S3T	2.54
S3P	2.72
S3E	3.25

Variant	protein stability index
S3W	1.72
S3A	2.23
P24A	2.28
P24R	2.05
P24G	2.51
P24F	1.57
P24D	2.89
P24M	2.28
P24N	2.15
P24Q	2.52
P24C	2.48
P24H	1.97
P24K	2.58
Y1N	3.9
Y1E	4.2
Y1M	3.22
Y1S	3.67
Y1W	2.61
Y1H	3.76
Y1P	3.63
Y1V	3.67
Y1K	3.63
Y1A	3.8
Y1D	4.46

Variant	protein stability index
Y1T	3.7
D9G	2.7
D9L	2.01
D9S	1.57
D9N	1.74
D9P	1.71
D9E	2.06
D9M	1.96
D9C	1.18
D9Q	1.93
D9H	1.89
D9R	1.96
D9A	1.44
F16T	3.14
F16C	3.12
F16W	1.45
F16L	3.38
F16M	2.91
F16G	3.26
F16E	3.64
F16P	3.19
F16N	3.59
F16Q	3.1
F16Y	2.28

Variant	protein stability index
F16S	2.88
F16I	2.95
F16V	2.85
F16A	3.2
F16K	3.15
Y10G	2.49
Y10E	3.04
Y10L	2.18
Y10P	2.53
Y10T	2.5
Y10N	2.64
Y10W	2.38
Y10R	2.82
Y10S	2.65
Y10M	2.12
Y10F	2.11
Y10C	2.47
Y10H	2.45
Y10D	2.85
Y10Q	2.67
Y10K	2.44
Y10A	2.2
E12Y	1.79
E12P	2.12

Variant	protein stability index
E12T	2.2
E12D	2.57
E12I	2.38
E12K	2.33
E12A	2.19
E12S	2.33
E12C	1.75
E12M	2.26
E12W	2.19
E12H	1.52
E12L	2.14
E12Q	1.86
Y15M	2.42
Y15T	2.8
Y15C	2.37
Y15A	2.92
Y15F	1.69
Y15S	2.96
Y15L	2
Y15H	2.9
Y15I	2.11
Y15D	3.64
Y15P	2.35
Y6S	3.77

Variant	protein stability index
Y6N	3.16
Y6V	3.31
Y6I	2.83
Y6E	3.76
Y6F	2.4
Y6D	3.68
Y6R	2.56
Y6C	2.65
Y6Q	2.93
Y6P	3.3
Y6M	2.85
S14R	1.9
S14W	2.29
S14I	1.76
S14F	1.78
S14P	2.62
S14K	2.16
S14L	2.08
S14E	2.83
S14V	2.19
S14D	2.44
S14N	2.35
S14H	2.13
S14G	2.37

Variant	protein stability index
S14Q	2.34
S14M	2.26
T17A	2.36
T17K	2.56
T17F	1.85
T17R	2.44
T17G	2.82
T17E	3.02
T17I	2.1
T17W	2.15
T17L	2.42
T17H	2.07
T17D	3.19
T17S	2.48
T17Y	2.23
T17P	2.4
T17Q	2.31
T18D	2.46
T18S	2.38
T18I	1.77
T18A	2.31
T18V	1.95
T18H	2.17
T18Y	1.76

Variant	protein stability index
T18Q	2.3
T18R	2.79
T18G	2.09
T18E	2.44
T18F	1.39
T18N	2.5
T18C	2.08
D8A	1.5
D8M	3.87
D8I	2.05
D8W	2.85
D8T	2.09
D8V	2.47
D8C	2.62
D8Q	1.67
D8F	2.13
D8K	1.91
D8P	2.36
D8R	1.8
D8L	2.37
D8S	1.92
E23V	2.48
E23M	1.55
E23P	2.44

Variant	protein stability index
E23L	2.18
E23A	1.7
E23R	1.91
E23N	2.42
E23I	1.92
E23S	2.12
E23Y	1.99
E23Q	1.94
E13N	1.64
E13M	2.68
E13I	1.67
E13V	1.71
E13L	1.93
E13W	1.83
E13H	1.47
E13T	2.29
E13R	1.82
E13S	2.16
E13K	1.67
E13F	3.37
E13P	1.74
E13Q	1.87
